Reference: PMC7280789, “Isotype Switching Converts Anti-CD40 Antagonism to Agonism to Elicit Potent Antitumor Activity” (Cancer Cell, 2020)
Each block holds one binder with its values, some of them ahead of it.

How the values were obtained:
[1] = target: T1, full-length hCD40 expressed on CHO-k1 cells (Homo sapiens, UniProt P25942); experiment: flow cytometry on cells; CHO-k1 cells expressing full-length hCD40 or truncated variants CRD2-4 or CRD3-4 incubated with 10 μg/mL anti-CD40 mAb; bound mAb detected by anti-human Fc-PE; details: one partner purified
T1 construct: CD40, human; results call it the full-length CD40 molecule; methods: wild-type full-length extracellular (EC) domain (CRD1-4) cloned into pCIpuro that contains the CD40 transmembrane domain for membrane anchoring; also called full-length CD40 molecule; CRD1-4; source: CHO-k1, stably transfected (pCIpuro), on cells

[2] = target: T2, hCD40 truncated variant CRD2-4 expressed on CHO-k1 cells (Homo sapiens, UniProt P25942, point mutant); experiment: as above; details: one partner purified
T2 construct: CD40, human, truncated variant CRD2-4 (lacks CRD1), with the CD40 transmembrane domain of the vector; source: CHO-k1, stably transfected (pCIpuro), on cells

[3] = target: T3, hCD40 truncated variant CRD3-4 expressed on CHO-k1 cells (Homo sapiens, UniProt P25942, point mutant); experiment: as above; details: one partner purified
T3 construct: CD40, human, truncated variant CRD3-4 (lacks CRD1 and CRD2), with the CD40 transmembrane domain of the vector; source: CHO-k1, stably transfected (pCIpuro), on cells

[4] = target: T4, His-tagged recombinant soluble full-length extracellular domain (EC) of hCD40 (Homo sapiens, UniProt P25942); experiment: far-Western, overlay or dot blot; western blot: His-tagged recombinant CD40 proteins run on 18% polyacrylamide gels, transferred to nitrocellulose, incubated with the anti-CD40 mAb at 4°C overnight, detected with goat anti-human IgG-HRP; details: both partners purified
T4 construct: CD40, human, wild-type full-length extracellular (EC) domain (CRD1-4); Used in the western blot and, as 'hCD40 EC domain', in the SEC/SEC-SAXS complex with 341G2 F(ab); also called hCD40 EC domain; CD40EC; source: FreeStyle 293F, transfected (pcDNA3.1), purified from supernatant (Ni-NTA)

[5] = target: T5, CD40 on Ramos cells (Homo sapiens (Ramos cells), UniProt P25942); experiment: flow cytometry on cells; Ramos cells incubated with a fixed concentration of CD40L and various concentrations of anti-CD40 mAbs; remaining bound CD40L detected by anti-FLAG-APC; details: one partner purified
T5 construct: CD40 on the surface of Ramos cells; also called CD40-expressing Ramos cells; source: endogenous, on Ramos cells

[6] = target: T6, hCD40 (immobilised for SPR) (Homo sapiens, UniProt P25942); experiment: SPR; Biacore T100; hCD40 immobilised on a CM5 chip by amine coupling; mAbs injected at 250, 50, 10, 2, 0.4 and 0 nM in HBS-EP+, 30 μL/min, 300 s association, 300 s dissociation; 1:1 Binding model; details: both partners purified
T6 construct: CD40, human

[7] = target: T4, His-tagged recombinant soluble …; experiment: SEC; 341G2 F(ab) and hCD40 EC domain mixed at a 1:1 molar ratio for 1 hour, complex purified by SEC; then SEC-SAXS on Superdex 200 increase 3.2/200 in PBS, 20°C; details: both partners purified

T5 sequence (P25942 21-277): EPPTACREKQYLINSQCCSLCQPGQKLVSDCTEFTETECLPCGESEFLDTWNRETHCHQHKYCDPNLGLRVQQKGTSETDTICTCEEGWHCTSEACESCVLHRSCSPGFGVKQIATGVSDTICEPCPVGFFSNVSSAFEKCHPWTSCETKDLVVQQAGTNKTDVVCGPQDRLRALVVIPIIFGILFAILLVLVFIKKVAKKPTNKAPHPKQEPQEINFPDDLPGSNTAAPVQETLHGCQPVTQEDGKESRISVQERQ
T4 sequence (P25942 21-193): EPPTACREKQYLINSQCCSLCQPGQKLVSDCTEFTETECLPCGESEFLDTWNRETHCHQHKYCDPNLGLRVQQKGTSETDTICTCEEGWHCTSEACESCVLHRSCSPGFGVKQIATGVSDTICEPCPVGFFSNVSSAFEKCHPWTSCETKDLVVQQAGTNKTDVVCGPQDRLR
T2 sequence (P25942 whole entry, looked up, change not shown, the tested form may be a part): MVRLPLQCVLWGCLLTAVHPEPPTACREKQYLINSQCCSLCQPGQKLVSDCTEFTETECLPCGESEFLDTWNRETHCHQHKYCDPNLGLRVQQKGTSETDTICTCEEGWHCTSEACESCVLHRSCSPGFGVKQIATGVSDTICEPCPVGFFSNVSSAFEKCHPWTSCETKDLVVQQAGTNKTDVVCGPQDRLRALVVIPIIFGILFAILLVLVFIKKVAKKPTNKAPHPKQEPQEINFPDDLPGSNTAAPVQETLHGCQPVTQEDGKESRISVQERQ
T3 sequence (P25942 whole entry, looked up, change not shown, the tested form may be a part): as above
T1 sequence (P25942 whole entry, looked up, the tested form may be a part): as the sequence (P25942 whole entry, looked up, change not shown, the tested form may be a part) above
T6 sequence (P25942 21-277): as the sequence (P25942 21-277) above

binding result [1]: binds
binding result [2]: no binding (tested: 10 μg/mL)
binding result [3]: no binding (tested: 10 μg/mL)
binding result [4]: binds
B1: 341G2 (anti-CD40 mAb; isotype not stated for these experiments) (antibody, V domains shown)
VH: QVQLQQSGPGLVKPSQTLSLTCAISGDSVSSNSATWNWIRQSPSRDLEWLGRTYYRSKWYRDYVGSVKSRIIINPDTSNNQFSLQLNSVTPEDTAIYYCTRAQWLGGDYPYYYSMDVWGQGTTVTVSS
VL: EIVLTQSPATLSLSPGERATLSCRASQSVSSYLAWYQQKPGQAPRLLIYDASNRATGIPARFSGSGSGTDFTLTISSLEPEDFAVYYCQQRSNTFGPGTKVDIK
notes: 341G2 heavy chain; 341G2 light chain; also called bleselumab; source: produced either from hybridoma cells or by transient expression in CHO cells, purified on protein A columns; copies: 2 + 2

binding result [5]: binds
binding result [6]: binds
B2: 341G2 hIgG4 (parental 341G2) (antibody, V domains shown)
VH: B1 VH
VL: B1 VL
notes: 341G2 heavy chain variable domain; human IgG4 heavy chain constant region (pEE6.4 vector encoding the isotype); may stand in SASBDB SASDHN8; IgG4; also called 341G2 h4; bleselumab; source: produced either from hybridoma cells or by transient expression in CHO cells, purified on protein A columns; copies: 2 + 2

binding result [7]: binds
B3: 341G2 F(ab) (Fab, V domains shown)
VH: B1 VH
VL: B1 VL
notes: may stand in the SASBDB entry of the CD40-341G2 F(ab) complex; may stand in SASBDB SASDHN8; also called F(ab) fragment of 341G2 hIgG1; source: digestion of 341G2 hIgG1 with papain-agarose, protein A depletion of IgG1 and Fc, purified by SEC

binding result [5]: binds
B4: 341G2 hIgG1 (antibody, V domains shown)
VH: B1 VH
VL: B1 VL
notes: 341G2 heavy chain variable domain; human IgG1 heavy chain constant region (pEE6.4 vector encoding the isotype); may stand in SASBDB SASDHN8; IgG1; also called 341G2 h1; hIgG1 variant of 341G2; source: produced either from hybridoma cells or by transient expression in CHO cells, purified on protein A columns; copies: 2 + 2
